Measured values taken from paper PMC10786891, “Massively parallel profiling of RNA-targeting CRISPR-Cas13d”.
Where a chain is given by its changes, count along the chain named. In names and notes the source's numbering stands.

T1: EsCas13d, nuclease-dead (Eubacterium siraeum, UniProt B0MS50, R295A;H300A;R849A;H854A)
T1 sequence: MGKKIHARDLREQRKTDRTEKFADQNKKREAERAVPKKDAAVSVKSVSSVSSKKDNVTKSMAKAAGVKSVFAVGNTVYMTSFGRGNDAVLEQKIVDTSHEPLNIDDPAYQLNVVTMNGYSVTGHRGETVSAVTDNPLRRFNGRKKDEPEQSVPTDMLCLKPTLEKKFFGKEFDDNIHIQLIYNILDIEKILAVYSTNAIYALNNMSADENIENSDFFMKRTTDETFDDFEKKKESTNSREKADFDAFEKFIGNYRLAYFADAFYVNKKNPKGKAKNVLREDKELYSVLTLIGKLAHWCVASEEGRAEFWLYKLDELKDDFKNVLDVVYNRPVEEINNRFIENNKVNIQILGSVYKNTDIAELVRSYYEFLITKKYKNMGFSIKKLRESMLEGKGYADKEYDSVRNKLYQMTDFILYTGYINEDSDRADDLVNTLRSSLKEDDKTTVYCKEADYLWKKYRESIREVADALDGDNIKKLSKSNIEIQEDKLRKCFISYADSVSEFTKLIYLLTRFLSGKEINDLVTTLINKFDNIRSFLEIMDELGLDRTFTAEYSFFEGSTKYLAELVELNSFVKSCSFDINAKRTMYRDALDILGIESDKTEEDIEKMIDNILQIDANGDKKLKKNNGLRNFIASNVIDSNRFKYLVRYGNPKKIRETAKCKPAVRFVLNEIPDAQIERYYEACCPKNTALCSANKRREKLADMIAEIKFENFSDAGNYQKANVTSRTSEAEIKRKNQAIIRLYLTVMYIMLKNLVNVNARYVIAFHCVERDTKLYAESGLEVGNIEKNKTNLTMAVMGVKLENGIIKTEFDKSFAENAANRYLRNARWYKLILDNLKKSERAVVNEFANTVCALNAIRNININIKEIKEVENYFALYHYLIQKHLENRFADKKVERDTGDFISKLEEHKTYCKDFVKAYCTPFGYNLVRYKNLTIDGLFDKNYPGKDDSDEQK

B1: target 1 G5U,C21A (mixed)
RNA 1: CACCCGUGCAAAAAUGCAGGGGUCUAAAACUGAGCGGAUAACCUCUCUAUGG
RNA 2: GGGAAUGGAUCCACAUCUACGAAUUCGUACAAUAGAGAGGUUAUCCUCUCACCGAGAUCGGAAGAGCACACGU
B2: target 1 insG 3' of 22,insC 3' of 12 (mixed)
RNA 1: B1 RNA 1
RNA 2: GGGAAUGGAUCCACAUCUACGAAUUCGUACGCAUAGAGAGGCUUAUCCGCUCACCGAGAUCGGAAGAGCACACGU
B3: target 1 insA 3' of 12,insU 3' of 4 (mixed)
RNA 1: B1 RNA 1
RNA 2: GGGAAUGGAUCCACAUCUACGAAUUCGUACCAUAGAGAGGAUUAUCCGCUUCACCGAGAUCGGAAGAGCACACGU
B4: target 2 MT 5'PFS UGG 3'PFS CAA (mixed)
RNA 1: CACCCGUGCAAAAUUGCAGGGGUCUAAAACCUUCUCCAAAUUGUUUCAUCCU
RNA 2: GGGAAUGGAUCCACAUCUACGAAUUCUGGAGGAUGAAACAAUUUGGAGAAGCAAAGAUCGGAAGAGCACACGU
B5: target 2 MT 5'PFS GUU 3'PFS AUG (mixed)
RNA 1: B4 RNA 1
RNA 2: B4 RNA 2 with U27G, G28U, G29U, C52A, A53U, A54G
B6: target 2 MT 5'PFS GCG 3'PFS UUA (mixed)
RNA 1: B4 RNA 1
RNA 2: B4 RNA 2 with U27G, G28C, C52U, A53U
B7: target 2 MT 5'PFS UGU 3'PFS UGU (mixed)
RNA 1: B4 RNA 1
RNA 2: B4 RNA 2 with G29U, C52U, A53G, A54U
B8: target 2 MT 5'PFS CUC 3'PFS AAG (mixed)
RNA 1: B4 RNA 1
RNA 2: B4 RNA 2 with U27C, G28U, G29C, C52A, A54G
B9: target 2 MT 5'PFS GUU 3'PFS AUA (mixed)
RNA 1: B4 RNA 1
RNA 2: B4 RNA 2 with U27G, G28U, G29U, C52A, A53U
B10: target 2 MT 5'PFS ACC 3'PFS CAG (mixed)
RNA 1: B4 RNA 1
RNA 2: B4 RNA 2 with U27A, G28C, G29C, A54G
B11: target 2 MT 5'PFS AGC 3'PFS AUG (mixed)
RNA 1: B4 RNA 1
RNA 2: B4 RNA 2 with U27A, G29C, C52A, A53U, A54G
B12: target 2 MT 5'PFS CGC 3'PFS UCA (mixed)
RNA 1: B4 RNA 1
RNA 2: B4 RNA 2 with U27C, G29C, C52U, A53C
B13: target 2 MT 5'PFS CUC 3'PFS AAC (mixed)
RNA 1: B4 RNA 1
RNA 2: B4 RNA 2 with U27C, G28U, G29C, C52A, A54C
B14: target 2 MT 5'PFS ACU 3'PFS UGU (mixed)
RNA 1: B4 RNA 1
RNA 2: B4 RNA 2 with U27A, G28C, G29U, C52U, A53G, A54U
B15: target 2 MT 5'PFS CAC 3'PFS UAU (mixed)
RNA 1: B4 RNA 1
RNA 2: B4 RNA 2 with U27C, G28A, G29C, C52U, A54U
B16: target 2 MT 5'PFS GUU 3'PFS AUU (mixed)
RNA 1: B4 RNA 1
RNA 2: B4 RNA 2 with U27G, G28U, G29U, C52A, A53U, A54U
B17: target 2 MT 5'PFS GCG 3'PFS AUC (mixed)
RNA 1: B4 RNA 1
RNA 2: B4 RNA 2 with U27G, G28C, C52A, A53U, A54C
B18: target 2 MT 5'PFS GCG 3'PFS AUG (mixed)
RNA 1: B4 RNA 1
RNA 2: B4 RNA 2 with U27G, G28C, C52A, A53U, A54G
B19: target 2 MT 5'PFS CUC 3'PFS AAA (mixed)
RNA 1: B4 RNA 1
RNA 2: B4 RNA 2 with U27C, G28U, G29C, C52A
B20: target 2 MT 5'PFS AGC 3'PFS AUA (mixed)
RNA 1: B4 RNA 1
RNA 2: B4 RNA 2 with U27A, G29C, C52A, A53U
B21: target 2 MT 5'PFS UAU 3'PFS GAA (mixed)
RNA 1: B4 RNA 1
RNA 2: B4 RNA 2 with G28A, G29U, C52G
B22: target 2 MT 5'PFS CGC 3'PFS UCC (mixed)
RNA 1: B4 RNA 1
RNA 2: B4 RNA 2 with U27C, G29C, C52U, A53C, A54C
B23: target 2 MT 5'PFS CUC 3'PFS AAU (mixed)
RNA 1: B4 RNA 1
RNA 2: B4 RNA 2 with U27C, G28U, G29C, C52A, A54U
B24: target 2 MT 5'PFS CAA 3'PFS CCG (mixed)
RNA 1: B4 RNA 1
RNA 2: B4 RNA 2 with U27C, G28A, G29A, A53C, A54G
B25: target 2 MT 5'PFS CAC 3'PFS UAA (mixed)
RNA 1: B4 RNA 1
RNA 2: B4 RNA 2 with U27C, G28A, G29C, C52U
B26: target 2 MT 5'PFS GCG 3'PFS AUA (mixed)
RNA 1: B4 RNA 1
RNA 2: B4 RNA 2 with U27G, G28C, C52A, A53U
B27: target 2 MT 5'PFS CGC 3'PFS UCG (mixed)
RNA 1: B4 RNA 1
RNA 2: B4 RNA 2 with U27C, G29C, C52U, A53C, A54G
B28: target 2 MT 5'PFS GCG 3'PFS UUC (mixed)
RNA 1: B4 RNA 1
RNA 2: B4 RNA 2 with U27G, G28C, C52U, A53U, A54C
B29: target 2 MT 5'PFS ACC 3'PFS CAA (mixed)
RNA 1: B4 RNA 1
RNA 2: B4 RNA 2 with U27A, G28C, G29C
B30: target 2 MT 5'PFS AGC 3'PFS AUC (mixed)
RNA 1: B4 RNA 1
RNA 2: B4 RNA 2 with U27A, G29C, C52A, A53U, A54C
B31: target 2 MT 5'PFS CAC 3'PFS UAC (mixed)
RNA 1: B4 RNA 1
RNA 2: B4 RNA 2 with U27C, G28A, G29C, C52U, A54C
B32: target 2 MT 5'PFS CAA 3'PFS CCA (mixed)
RNA 1: B4 RNA 1
RNA 2: B4 RNA 2 with U27C, G28A, G29A, A53C
B33: target 2 MT 5'PFS GUU 3'PFS AUC (mixed)
RNA 1: B4 RNA 1
RNA 2: B4 RNA 2 with U27G, G28U, G29U, C52A, A53U, A54C

What follows are binders tested against T1, EsCas13d, nuclease-dead (assay: crRNA (strand 1, pre-loaded); Mg2+; 40 mM Tris-HCl pH 7.5, 150 mM NaCl, 6 mM MgCl2, 1 mM DTT, 0.1% Tween-20, 0.2 mg/ml BSA; 25 C; 10 min per concentration, then washed). Conditions: tags: His6-TwinStrep-SUMO cleaved; N-terminal SNAP kept (SNAP-Surface 488); label: 3' end held by stalled T7 RNA polymerase.

In order of rising Kd:
1. B31  0.00166 ± 0.00025 µM
2. B15  0.00187 ± 0.00031 µM
3. B19  0.0023 ± 0.0006 µM
4. B25  0.0023 ± 0.0004 µM
5. B8  0.00232 ± 0.00034 µM
6. B23  0.00232 ± 0.00027 µM
7. B13  0.0025 ± 0.0005 µM
8. B29  ~0.0043 µM
9. B4  0.0047 ± 0.0008 µM
10. B10  0.0051 ± 0.0009 µM
11. B12  0.0055 ± 0.0017 µM
12. B20  0.0071 ± 0.0013 µM
13. B24  0.0073 ± 0.0029 µM
14. B27  0.0079 ± 0.0011 µM
15. B14  0.0081 ± 0.001 µM
16. B32  0.01 ± 0.005 µM
17. B17  0.0101 ± 0.0009 µM
18. B26  0.0106 ± 0.0021 µM
19. B30  0.0109 ± 0.0028 µM
20. B16  0.0116 ± 0.0014 µM
21. B11  0.0126 ± 0.0029 µM
22. B9  0.0133 ± 0.0019 µM
23. B21  0.0143 ± 0.0031 µM
24. B33  0.015 ± 0.0012 µM
25. B18  0.0155 ± 0.0021 µM
26. B7  0.0189 ± 0.0027 µM
27. B5  0.0196 ± 0.0024 µM
28. B6  0.021 ± 0.004 µM
29. B28  0.021 ± 0.004 µM
30. B3  0.0263 ± 0.0017 µM
31. B1  ~0.04 µM
32. B2  0.042 ± 0.006 µM
33. B22  ~0.06 µM
